Measurements published in article PMC4967814 (2016).

B1: 19D11, APS1/APECED patient-derived anti-IFN monoclonal antibody (antibody, V domains shown)
VH: QVQLVQSGAEVKRPGSSVRVSCRASGDTFSSYPISWVRQAPGQGLEWMGRILPALGVTNYAQNFRGRITITADKSPLTAYLELSSLRFEDTAVYYCASPSADIIPSILGTTLFAFWGQGSLVTVSS
VL: EIVLTQSPGTLSLSPGEGATLSCRASQNVSRHYLTWYQQKPGQSPRLLIYGGSSRATGVPDRFSGGGSGTDFTLTISRLEPEDFAVFYCQSYHSPPPVYTFGQGTKVEIK
B2: 26B9, APS1/APECED patient-derived anti-IFN monoclonal antibody (antibody, V domains shown)
VH: QILLQESGPGLVKPTETLSLTCSVSGDSISDSSHYWAWIRQPPGKGPEWIGSVYFSSMTHYNPSLKSRVSISVDKPKNQFSLKVTSVTVADTATYYCARQALARVGAMNWFDPWGQGSLVTVSS
VL: DIIMTQSPDSLPVSLGEGVTINCKSSQSVFFTSSNKSCLAWYQQKPGKSPKLLIYWASTRQSGVPDRFRGSGSGTDFSLTITSLQAEDVAVYFCQQCQTSPPTFGGGTRLEIK

Columns and labels:
Assay in all cases: SPR
recombinant human IFNα4 = molecular target: T1, recombinant human IFNα4 (human, UniProt P05014 24-189)
T1 chain: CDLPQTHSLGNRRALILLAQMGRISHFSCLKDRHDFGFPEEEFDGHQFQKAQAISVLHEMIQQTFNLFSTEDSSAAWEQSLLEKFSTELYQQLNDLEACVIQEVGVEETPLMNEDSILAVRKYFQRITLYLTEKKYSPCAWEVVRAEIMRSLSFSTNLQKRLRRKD

recombinant human IFNα14 = molecular target: T2, recombinant human IFNα14 (human, UniProt P01570 24-189)
T2 chain: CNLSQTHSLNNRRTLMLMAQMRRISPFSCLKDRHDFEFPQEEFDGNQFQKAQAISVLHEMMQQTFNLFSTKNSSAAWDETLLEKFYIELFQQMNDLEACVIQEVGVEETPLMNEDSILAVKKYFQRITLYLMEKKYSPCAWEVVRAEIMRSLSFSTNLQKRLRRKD

recombinant human IFNω = recombinant human IFNω (human, UniProt P05000 22-195)
recombinant human IFNω, sequence (P05000 22-195): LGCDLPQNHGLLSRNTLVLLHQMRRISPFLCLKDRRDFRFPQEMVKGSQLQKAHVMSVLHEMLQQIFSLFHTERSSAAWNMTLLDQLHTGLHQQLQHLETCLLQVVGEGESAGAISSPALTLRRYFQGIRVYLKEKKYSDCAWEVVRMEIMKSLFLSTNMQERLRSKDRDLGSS

Binder	Kd (recombinant human IFNα4) [pM]	Kd (recombinant human IFNα14) [pM]	Kd (recombinant human IFNω) [pM]
B1	0.263	0.0611	–
B2	0.0375	–	0.125
